Experimental data reported in patent US20140030245.

Target: T1, Myc-tagged Chk1 C-terminal fragment C5, O14757
T1 chain: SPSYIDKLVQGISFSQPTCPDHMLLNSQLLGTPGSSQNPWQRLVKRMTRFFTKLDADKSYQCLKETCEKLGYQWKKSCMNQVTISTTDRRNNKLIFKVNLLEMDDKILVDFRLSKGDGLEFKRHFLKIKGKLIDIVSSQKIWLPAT

B1: endogenous Chk1 (protein)
chain: MAVPFVEDWDLVQTLGEGAYGEVQLAVNRVTEEAVAVKIVDMKRAVDCPENIKKEICINKMLNHENVVKFYGHRREGNIQYLFLEYCSGGELFDRIEPDIGMPEPDAQRFFHQLMAGVVYLHGIGITHRDIKPENLLLDERDNLKISDFGLATVFRYNNRERLLNKMCGTLPYVAPELLKRREFHAEPVDVWSCGIVLTAMLAGELPWDQPSDSCQEYSDWKEKKTYLNPWKKIDSAPLALLHKILVENPSARITIPDIKKDRWYNKPLKKGAKRPRVTSGGVSESPSGFSKHIQSNLDFSPVNSASSEENVKYSSSQPEPRTGLSLWDTSPSYIDKLVQGISFSQPTCPDHMLLNSQLLGTPGSSQNPWQRLVKRMTRFFTKLDADKSYQCLKETCEKLGYQWKKSCMNQVTISTTDRRNNKLIFKVNLLEMDDKILVDFRLSKGDGLEFKRHFLKIKGKLIDIVSSQKVWLPAT
- phosphorylation of endogenous Chk1 proteins (immunoblot, HeLa): overexpression of the C5 fragment and to a lesser extent, the entire C-terminus, induced strong phosphorylation of endogenous Chk1 proteins
- phosphorylation of endogenous Chk1 under normal growth conditions (immunoblot, HEK293T): expression of the C5 fragment, and to a lesser extent, the C6 fragment, but not other small fragments, induced phosphorylation of endogenous Chk1 under normal growth conditions
